Data: the supplement of paper PMC12042874
± gives the uncertainty stated by the source.

Experiment: amyloid nucleation score (Sup35N fusion, yeast selection) (log enrichment); library NNK3; higher = more nucleation; inactive = no reads after selection
Summary of the method: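 Libraries of peptides of 20 random codons fused to Sup35N were expressed in psi-negative yeast and induced 24 hours with 100 μM copper sulfate. Selection was 7 days at 30°C on medium lacking adenine and uracil, and plasmid inserts were Illumina-sequenced before and after selection. Nucleation score is the DiMSum log enrichment of output over input reads, centred on the mode score of non-aggregating sequences, and sequences with under 100 input reads were left out.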
In the case of WMFGQSIAALFSWGTVCGLV, the amyloid nucleation score is reported as “inactive”.
With FTSNAESTLWTRPRNYRNVS the amyloid nucleation score was “inactive”.
For SDDKGVWLIMAGLCGIWSMY, the amyloid nucleation score was 2.33 ± 0.082.
Work on TYTFLSPVIDYKLYVYQCRT yielded an amyloid nucleation score of 1.72 ± 0.067.
With HVFYIVYSFISLRNHVAYLS the amyloid nucleation score was “inactive”.
In the case of PTSKGYVVYKETWVLDRSKM, the amyloid nucleation score is reported as 1.07 ± 0.17.
For WLKAEGWIIILSSATRPG, the amyloid nucleation score was “inactive”.
With VYAKVMSCGYGQRCVMEWFE the amyloid nucleation score was “inactive”.
For CNCPPPPSSRYYSFSKAVYG, the amyloid nucleation score was “inactive”.
In the case of CLVGPVHPMFVL, the amyloid nucleation score is reported as “inactive”.
In the case of YGMYC, the amyloid nucleation score is reported as “inactive”.
With YSVIMPCSNLNWVDMNLTEY the amyloid nucleation score was -0.169 ± 0.29.
In the case of PKEYTRAGNVSSRRGLFYHF, the amyloid nucleation score is reported as “inactive”.
Substance YSIIVVL has an amyloid nucleation score of 1.39 ± 0.087.
PLWTPDGPLIGVVFVLSNNV gave an amyloid nucleation score of 1.03 ± 0.15.
With KCMQVVSSRSWVVHWGWKGG the amyloid nucleation score was “inactive”.
For HNVAYCSGGFCDPYSNFREG, the amyloid nucleation score was “inactive”.
For KWVFYYDRRVDSLLARMFLC, the amyloid nucleation score was “inactive”.
Work on SITYCWLHR yielded an amyloid nucleation score of 1.77 ± 0.078.
For TADRQGYSFEC, the amyloid nucleation score was “inactive”.
For EFAGCKRRMRKGPIIVPADV, the amyloid nucleation score was “inactive”.
With GYERSDKKLDKKVL the amyloid nucleation score was “inactive”.
In the case of DNIGSCHDSRAYVS, the amyloid nucleation score is reported as “inactive”.
With IGVKSYWLRRSYLLFKYWMV the amyloid nucleation score was “inactive”.
With DGCGCKWTGACAMLSCHMYL the amyloid nucleation score was 1.41 ± 0.091.
Work on NSVIGVFQLESSRRGLWDFI yielded an amyloid nucleation score of 1.52 ± 0.11.
With ASSKCYINKRSNPGRRGLYG the amyloid nucleation score was “inactive”.
For PASLTRDVTMCFQNRWDPLR, the amyloid nucleation score was “inactive”.
In the case of YPNDLTRVFDRDNNLLGTHG, the amyloid nucleation score is reported as 0.551 ± 0.32.
With GCRLPSWMYLVGELISFLSG the amyloid nucleation score was “inactive”.
With NVDGKLVD the amyloid nucleation score was “inactive”.
For WYGCVAWYVVKSMFYS, the amyloid nucleation score was “inactive”.
With GYFTRFSVFNNMEPLSCCMC the amyloid nucleation score was 1.38 ± 0.13.
With SFFTWYTSFSKDDLWSGLTV the amyloid nucleation score was “inactive”.
For VKIFS, the amyloid nucleation score was “inactive”.
Substance STVFDFSTLNFFCKSCSIFW has an amyloid nucleation score of 2.22 ± 0.087.
For RKGNGMHKNSYSTARMYCGF, the amyloid nucleation score was “inactive”.
With NHLMTFLVWWLMIALLPHLD the amyloid nucleation score was “inactive”.
Work on SILKFNQSLQSLFSNYYHLC yielded an amyloid nucleation score of 1.14 ± 0.097.
In the case of WYMGFSAVLVCFRLSRPVT, the amyloid nucleation score is reported as “inactive”.
TWSSLFMIFQYTCAGCWDFK gave an amyloid nucleation score of 1.52 ± 0.068.
Substance ESYRTKFIVFGWGL has an amyloid nucleation score of 0.835 ± 0.12.
In the case of LIARALFNSKWQDTSLSL, the amyloid nucleation score is reported as “inactive”.
For IPFGFSI, the amyloid nucleation score was “inactive”.
For HYVIV, the amyloid nucleation score was “inactive”.
QDTLYMLDPGG gave an amyloid nucleation score of -0.318 ± 0.7.
With TRASRRKSHSTSMDLPIRRH the amyloid nucleation score was “inactive”.
With IATTDIYAAYFYSLMQAIYR the amyloid nucleation score was “inactive”.
For CMAIVATATRSGPVGRSLAK, the amyloid nucleation score was 0.508 ± 0.33.
For PVMLGYGMGYSATVVKGCCL, the amyloid nucleation score was “inactive”.
In the case of ARHVLAGCKRMLYHFEGRVG, the amyloid nucleation score is reported as -0.643 ± 1.3.
In the case of DFDILGSDHISWWYGRFDKT, the amyloid nucleation score is reported as “inactive”.
With GAFSYEVFPTGRPLFKTGGH the amyloid nucleation score was “inactive”.
For MRLVICTAHWQSFYRFYIIL, the amyloid nucleation score was “inactive”.
For RYYIMILLS, the amyloid nucleation score was “inactive”.
With GIVYKRVYRMWVHVAEAESR the amyloid nucleation score was “inactive”.
With HLYDKSMNVGSRSARAELSM the amyloid nucleation score was “inactive”.
Substance CYVWSTALCVNISCGSSTAE has an amyloid nucleation score of 2.7 ± 0.054.
In the case of TSGGTFQDATSHNSNSHMWK, the amyloid nucleation score is reported as “inactive”.
With MDVARRMFLISYIFIIFVVR the amyloid nucleation score was “inactive”.
With VTHCSVFHLGNTWLVQLWWY the amyloid nucleation score was -0.513 ± 1.3.
With SQDFKLPSLSTFYRHGMEPS the amyloid nucleation score was “inactive”.
With STLRSLCRPSGFGVAI the amyloid nucleation score was “inactive”.
With TLDGLLRASMYSLIYWLVLM the amyloid nucleation score was “inactive”.
With IVYYGVTGLTRGFSEVRKIS the amyloid nucleation score was “inactive”.
With IKAGTEVVFRTSDLFMTMLQ the amyloid nucleation score was “inactive”.
With YGHFPQCVPLIFCYRRSMVT the amyloid nucleation score was “inactive”.
With FFYYLRSVLHSSYLFRRDVI the amyloid nucleation score was “inactive”.
With QNFRIYTVSLLNNRYDELIS the amyloid nucleation score was “inactive”.
For LMLDFSIGRSPGDNAVICRH, the amyloid nucleation score was “inactive”.
In the case of DIVCNFVT, the amyloid nucleation score is reported as “inactive”.
LHPCEYALM showed an amyloid nucleation score of -1.4 ± 2.5.
In the case of AIHTSPLIIPPNRFVRYRNR, the amyloid nucleation score is reported as “inactive”.
With VYDNNYINFRSLLYMTKVSN the amyloid nucleation score was “inactive”.
With YKFFGDLKVAYFGKVKIE the amyloid nucleation score was “inactive”.
With VYINVNDVALKHRFLKPV the amyloid nucleation score was “inactive”.
For DPRRGIPIKPQMINTVQM, the amyloid nucleation score was “inactive”.
With RRYIRSVNCKQWDYKFLMYS the amyloid nucleation score was “inactive”.
For LRIERQSAFSCILDM, the amyloid nucleation score was “inactive”.
For FECRQ, the amyloid nucleation score was “inactive”.
